Reference: article PMC12678802, “Tudor-based proteomic strategy pan-specifically enriches and identifies protein arginine methylation” (EMBO Reports, 2025)
Like-named read-outs stand apart in the source and are kept apart here.

What was measured:
SMN Tudor domain (SMN) = biological target: T1, SMN Tudor domain (SMN) (Homo sapiens, UniProt Q16637); assay: isothermal titration calorimetry (ITC), […] model, N fixed at […]; type: binding
T1 construct: gene SMN1; SMN Tudor domain (80–167 aa), C-terminal His6-tag

[1] = biological target: SMN Tudor domain (80-167 aa) with a C-terminal His6-tag (UniProt Q16637); assay: ITC; 2 mM or 5 mM ligand in the syringe injected into 200 uM or 300 uM SMN Tudor in the cell; 1x PBS, 25 °C; one site model with stoichiometry (N) fixed at 1
Sequence of SMN Tudor domain (80-167 aa) with a C-terminal His6-tag (Q16637 80-167): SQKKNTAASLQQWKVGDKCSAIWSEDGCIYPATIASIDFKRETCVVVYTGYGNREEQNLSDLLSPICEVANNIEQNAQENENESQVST

T1 sequence (Q16637 80-167): as above

Row | Kd (SMN Tudor domain (SMN); read-out: KD) [µM] | Kd [1] [µM] | dH [1] [kcal/mol] | Compound | also measured
1 | 359 ± 45 |  |  | CN=C(NC)NCCC[C@H](N)C(=O)O [sDMA, Symmetric dimethylarginine] | 
2 |  | > 2000 |  | SmD1 heptapeptide AGRGRGR, residues 96–102 of SmD1 | 

More lines, now with the values behind:

Row | Compound | Kd (SMN Tudor domain (SMN); read-out: KD) [µM] | Kd [1] [µM] | dH [1] [kcal/mol] | also measured
3 | CNC(=N)NCCC[C@H](N)C(=O)O [MMA, Methylarginine (L-NMMA)] |  |  |  | Kd (SMN Tudor domain (SMN)): 1800 ± 322 µM
4 | CN(C)C(=N)NCCC[C@H](N)C(=O)O [aDMA, Asymmetric dimethylarginine] | 860 ± 34 |  |  | 
5 | SmD1-aDMA heptapeptide AGRme2aGRGR, residues 96–102 of SmD1 |  | 834 | -8.02 | 
6 | SmD1-sDMA heptapeptide AGRme2sGRGR, residues 96–102 of SmD1 |  | 375 | -14.5 | 
